experiment: yeast display, Sf9 membrane polyspecificity reagent, FACS + sequencing; frameworks hold sequencing errors
How it was run: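 Nanobodies from a synthetic yeast display library (Saccharomyces cerevisiae BJ5465), induced 36–48 hours with galactose, were stained 1 hour at 4 °C with 10% biotinylated, detergent-solubilized Sf9 membrane reagent, enriched on streptavidin microbeads, then FACS-sorted. Anti-HA (expression) and streptavidin (reagent binding) fluorescence set low and high (top ~1%) gates. Polyreactivity labels come from the gate of origin. Genes were colony-PCR amplified, MiSeq 2 × 250 sequenced and filtered by CDR length.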

Sequence | polyreactivity (PSR sort gate)
QVQLVESGGGLVQAGGSLRLSCAASGSTFSKNAMGWYRPAPGKERELVAAIRSRGGSTYYADSVKGRFTISRDNAKNTVYLQMNSLKPEDTAVYYCAAQYFWYVYSYDYWGQGTQVTVSS | high polyreactivity
QVQLVESGGGLVQAGGSLRLSCAASGFIFGYYTMGWYRQAPGKERELVASITRGGSTNYADSVKGRFTISRDNAKYTVYLQMNSLNPEDTAVYYCAKRYAQTYSVSRYYYWGQGTQVTVSS | high polyreactivity
QVQLVESGGGLVQAGGSLRLSCAASRNTFVPYVMGWYRQAPGKERELVAAISRRGGSTRYADSVKGRFTISRDNAKNTVYLQMNSLKPEDTAVYYCAAKRKSYYSYNFDYWGHGTQVTVSS | high polyreactivity
QVQLVESGGGLVQAGGSLRLSCAASGRNFRVYAMGWYRQAPGKESELVAAITSGGTTYADSVKGRFTISRDNAKNTGYLQMNSLQPEDTAVYYCAARYYIHRGYDYDYWGQGTQVTVSS | high polyreactivity
QVQLVESGGGLVQAGGSLRLSCAASGITFVRYAKGWYRHAPGKEREFVARISRSGASTYYADSVKGRFTISRDNAKNTVYLQMNSLKPEDTAVYYCNAVPGGSRFDYWGQGTQVTVSS | high polyreactivity
QVQLVESGGGLVQAGGSLRLSCAASGSTFTGYAMGWYRQAPGNEREFVAAISRRGGSTYYADSVKGRFTISRDNAKNTVYLQMNSLKPEDTAVYYCAARGVGGTVPTRYDYWGQGTQVTVSS | high polyreactivity
QVQLVDSGGGLVQAGGSLRLSCAASGRTFSVNAMGWYRQAPGKERELVAAISSAGSTNYADSVKGRFTISRDNAKNTVYLQMNSLKPEDTAVYYCAAGFSPGNYDAPTLAFDYWGQGTQVTLSS | low polyreactivity
QVQLVESGGGLVQAGGSLRFSCAASGRIFGTYAMGWYRQAPGKERELVAAITQSGGRTYYADSVKGRFTISRDNAKNTVYLQMNSLKPEDTAVYDCNKVTYRGIGLGYDYWGQGTQVTVSS | high polyreactivity
QVQLVESGGGLVQAGGSLRLSCAASGFTFSHYAMGWYRQAPGKEMELVAAITWSGGSTYYADSVKGRFTISRDNAKNTVYLQMNSLKPEDTAVYYCAAESYLDGGDYWGQGTQVTVSS | high polyreactivity
QVQLVESGGGLVQAGGSLRLSCAASGRITGINAMGWYRPAPGKERELVAAITWRGGRKYYADSVKGRFTISRDNAKNTVYLQMNSLKPEDTAVYYCAAELQGAYYFAYYYWGQGTQVNVSS | high polyreactivity
QVQLVESGGGLVQAGGSLRLSCAASGYIFGHYAMGWSRQAPGKERELVAGITWRGGSTYYADSVKGRFTISRDNAKNTVYLQLNSLKPEDTAVYYCNAQYTQRWPYGLYYEMDYWGQGTQVSVSS | low polyreactivity
QVQLVESGGGLVQAGGSLRLICAASGSIFRIYAMGWYRQAPGKEREFVAAISRRGGSTYYADSVKGRFTISRDNAKNTVYLQMNSLKPEDTAVYYCAASGGGSDAYWGQGTQVTVSS | high polyreactivity
QVQLVESGGGLVQAGGSLRLSCAASGITFGRNTMGWYRQAPGKERELVAAIDSGGNTYADSVKGRFTISRDNAKNTVYLQMNSLKPEDTAVYYCNARSYYGYGRYDYWGQGTQVTVSS | low polyreactivity
QVQIVESGGGLLQAGGSLRLSCAASGRIFPANAMGWYREAPGKERELGAAIDYDGGSTYYADSVKGRFTISRDNAKNTVYLQRNSLKPVDNGVFYCDKSLTFYSWRDYGYWGQGTQVTVSS | high polyreactivity
QVQLVESGGGLVQAGGSLRLSCAASPLTFRYYDMGWYRQAPGKERELVAAISRTGRTNYADSVKGRFTISRDNAKNTVYVQMNSLKPEDTAVYYCAATGIYAKALLWYDYWGQGTQVTVSS | high polyreactivity
QVQLVESGGGLVQAGGSLRLSCAASGSTFRFYAMGWYRQAPGKERELVAVIRSTGSTYYADSVKGRFTISRDNAKNTVYLQMNSLKPEDTAVYYCAAQNAWWSNGRSYDYWGQGTQVTVSS | low polyreactivity
QVQLVESWGGLVQAGGRLRLSCAASGIIFHRNAMGWYRQAPGKQRELVAAISERGGSTYYADSVKGRFTISRDNAKNTVYLQMNSLKPEDTAVYYCIADGFYRGGYWGQGTQVTVSS | low polyreactivity
QVQLVESGGGLVQAGGSLRLSCAASGRTFRVYAMGGYRQAPGTERELVASISRRGAATYYADSVKGRFTISRDNAKNTVYRQMNSLKPEDTAVSDCAADRPYYSVSPNTEFEYWGQGTQVTVSS | high polyreactivity
QVQLVESGGGLDQAGGSLRLSSAASGRTFYYYAMGWYRKAPGKERELVAAITRSGGSTYYADSVKGRFTISRDNAKNTFYLQMNSLKPEDTAVYYCAVQVRPNSGGTRIHRGGYDYWGQGTQVTVSS | low polyreactivity
QVQLVESGGGLVQAGGSLRLTCAASGYTIIQYAMGWYRQAPGKERELVAGITWSGGSTYADSVKGRFTISRDNAKNTVYLQMNSLKPEATAVYYCAADDRDIYQYGTPYGSGIRYDYWGQGTQVTVSS | low polyreactivity
QVQLVESGGGLVQAGGSLRLSCAASVYAMGWYRQAPGKERELVAAITDSGSTNYADSVKGRFTISRDNAKNTVYLQMNSLKPEDNAVYYCNADPYYATGSWARLPLYQYDYWGQGTQVTVSS | low polyreactivity
QVQLVESGGGLVQAGGSLRLSCAASGGIFVPNAMGWSRQAPGKARELVAAISYSGGRTYYADSVKGRFTISRDNAKNTVYLQMTSLKPEDTAVYYCAAEYWFVYHHYNYWGQGTQVTVSS | high polyreactivity

Sequence | polyreactivity (PSR sort gate)
QVQLVESCGGLVQAGGSLRLSCASSGLTFSRYAMGWSRQAPGKERELVAVISRSGGSTYYADSVKGRFTISRDNAKTTVYLHMNSLKPEDTAVYYCAVRAYIKMDYWGQGTQVTVSS | high polyreactivity
QVQLVESGGGLVQAGGSLRLSCAASGFTFATYAMGWYRQAPGKERELVAAISKSGGSTYYADSVKGRFTISRDNAKNTVYLQMNSLKPEDTAVYYCAKRRSVRYDYWGQGTQVTVSS | high polyreactivity
QVQLVESGGGLVQAGGRHPVSCAASGRTIAYNAKGLYRQATGKERELVASITSGGSTNYADSVKGRFTISRDYAKNTVYLQMNSLKQEHTADYYFNKDGKYHRVLFEYWGQGTQVTVSS | low polyreactivity
QVQLQESGGGLVQAGGDLRLSCAASGKILRDYIMGWYRQASGKEREFVAGIDRGANTNYADSVKGRLTISRDNAKKTVYLQMNSLKPEDTAVYYCAVHTAIVPDFIYWGQGTQVTVSS | low polyreactivity
QVKLQESGGSHVQAGGSLRLSCAASGFIFARNYIGWYRQAPCKERELVAGIGVRASTNYADSDKGRFTISRDNAKNSVYLQMNSLEPEDTAVYYCAVGDTVLGYHYYWGQGTQVTVSN | low polyreactivity
QVQLVESGGGLVQAGGSLRLSCAASGITFITYVMGWYRQAPGKERELVAAISLRGGRTSYADSVKGRFTISRDNAKNTVYLQMNSLKPEDTAVYYCAARAYYTRYDYWGQGTQVTVSS | high polyreactivity
QVQLVESGGGLVQAGGSLRLSCAASGGTFVYYAMGWYRQAPGKERELVAAITSRGTSTYYADSVKGRFTISRDNAKNTVYLQMNSLKPEDTAVYYCAAGTPRGILRNSSYNYWGQGTQVTVSS | high polyreactivity
QVQLVESGGGLVQAGGSLRLSCAASGLTFGGNAMGWYRQAPGKERELVAAISWSDDTTDYADSVKGRFTISRDNAKNTVYVQMNSLKPEDTAVYYCAARLPFEHVDYWGQGTQVTVTS | low polyreactivity
QVQLVESGGVLVQAGGSLRLSCAASGRIFWLNAMGWYRQAPGKEREFVASITYGSDSTYYADSVKGRFTISRDNAKNTVYLQMNSRTPEDTAVYYCNREGWHYGPYGYWGQGTQVTVSS | low polyreactivity
QVQLVESGGGLVQAGGSLRLSCAASGRTFGVYVMGWSRQAPGKERELVAVITISGGSTYYADSVKGRFTISRDNAKNTVYLQMNSLKPEDTAVYYCAARTYYGYDYWGQGTQVTVSS | high polyreactivity
QVQLVESGGGLVQAGGSLRLSCAASGRIFYTNGMGWYRQAPGKERELVAAISYNGGRTYYADSVKGRFTISRDNAKNTVYLQMNSLKPEDTAVYYCNKRGDYQFHFDYWGQGTQVTVSA | low polyreactivity
QVQLVESVGGLVQAGGSLSLSSAASGRTFGNYAMGWYRQAPGKERELVADITRRGGSTSYADSVKGRFTISRDNAKNTVYLQMTSLKTEDTAVYYCNKAAEGSSHYDYWGLGTQVTVSS | low polyreactivity
QVQLVESGGGLVQAGGSLRLSCAASGFTFWSYAMGWYRQAPGKERELVAGITIDGNTYYADSVKGRFTISRDNAKNTVYLQMNSLKPEDTAVYYCAAVAYYYGYDYWGQGTQVTVSS | low polyreactivity
QVQLVESGGGLVQAGGSLRLSCAASGIIFLYYAMGWYRQAPGKERELVAAISSGGSTYYADSVKGRFTISRDNAKNTFYLQLNSLKPEDTAVYYCAVGRVGRFYYWGQGTQVSVSS | high polyreactivity
QVQLEESGGGLVQAGGSLRLSCAASGRTTYWYAMGWYRQAPGKERELVADISWSGGSTYYADSVKGRFTISRDNAKNTVYLQMNSLKPEDPAVYYCNAAEQKYSIYYAFDTGPYDYWGQGTQVTVSS | low polyreactivity
QVQLVESGGDLVQAGGSLRLSCDASGRTCSANGMGSYRQSTGKERELVAAITRSGGITYYADSVKGRFTISRDNAKNTVYLQMNSLNPEDTADYYCAASVYSLSRRSWMDYWGQGTQVTVST | low polyreactivity
QVQLVESGGGLVQAGGSLRLSCAASGFTFARNAMGWYRQAPGKEWELGATISTSGGSTYYADSVKGRFTISRDNAKNTVYLQMNSLKPEDSAVYYFAASYWKGYRRDYWGQGTQVTVSS | low polyreactivity
QVQLVESGGGLVQAGGSLRLSCAASGSTFYYYAMGWSRQAPGQERELVAAISWRGSSTYYADAVQGRFTISRDNAKNTVYLQLNSLKPEDTAVSYCAAGYPGRVSGYRYGTRATYYYWGQGTQVTVSS | high polyreactivity
QVQLVESGGGLVQAGGSLRLSCAASGRTFLGYTMGWYRQAPGKERELVAAITSGGSTYYADSVKGRFTISRDNAKNPVYLQMNSLKPEDTAVYYCARGYFEQVQYWYDNEYDFWGQGTQVTGSS | low polyreactivity
QVQLVESGGGLVQAGGSLRLSCAASGSTFLNYAMGWYRQAPGKERELVAAISGRGGRTYYADSVKGRFTISRDNAKNTVYLLMNSLKPEDTAVYYCAARKWVSYTSYDYWGQGTQVTVSS | high polyreactivity
QVQLVESGGGLVQAGGSLRLSCAASGNTFLAYVMGWYRQAPGKEREFVAAISRRDGRTYYADSVKGRFTISRDNAKNTVYLQMNSLKPEDTAVYYCNAQRHFWHLYAPSSFDYWGQGTQVTVSS | low polyreactivity
